Substrate in data set [1]: CC(C)=CCNc1ncnc2nc[nH]c12
Kind of data set: purified protein. Type of data set: biochemical, Linum usitatissimum. The settings on record: 0.5 mM DCPIP as electron acceptor, 1.6 µM LuCKX1.1, McIlvaine buffer pH 7.5, no AvrL567-A.

Substrate in data set [2]: C/C(=C\CNc1ncnc2[nH]cnc12)CO
Kind of data set: purified protein. As to conditions: 0.5 mM DCPIP as electron acceptor, 1.6 µM LuCKX1.1, McIlvaine buffer pH 7.5, no AvrL567-A.

The target of data set [3] is LuCKX1.1 protein (residues 44-534), purified (flax (Linum usitatissimum)).

B1: LuCKX1.1 (Linum usitatissimum) (protein)
chain: LQGSIDYSTLAADFTGKDFGGVYSSNPLALIRPSGADDVARVLKSACRSSNLTVAARGNGHSINGQAMADGGIVLDMRSTEGNHFKILRINGGDHTAYADVSGGALWEDILMRCVSEYGLAPRSWTDYLRLTVGGTLSNAGVSGQAFRYGPQSSNVTELDVVTGKGDFLTCSPTHNSDLFFGALGGLGQFGVITRARIPLEPAPDMVRWIRMVYAEFEDFSRDAEWLVTQPEKESFDYVEGFAFVNSDSPADGWPSVPLYPNHMMEPTTPIHSGHQLLYCLELALHFNHSNSSSTVDSVVKRLIGGLRYMKGFKYEVDLSYVEFVMRVKRVEEDARAHGMWDAPHPWLNLFVSKADIAEFDRLIFKGLLHDGVGGPMLVYPLLRSKWDSRSSVVLPEGEDEIFYIVALLRSNPPYPKGPSVDKLVSQNDKIIQSCIQHGLGFKLYLPHYQSQHDWRRHFGDQWSKFVQLKLAFDPMAVLAPGQKIFTRTTK
notes: crystal model residues 44-532, two molecules per asymmetric unit; FAD covalently linked to His104
As for B1, in “purified protein [1]”, the Michaelis constant (Km) is listed as 44 µM and the kcat was 5.4 s⁻¹. For the same molecule, in the data set “purified protein [2]”, the Km is given as 64 µM and the catalytic constant (kcat) turned out to be 0.69 s⁻¹.

B2: AvrL567-A protein (residues 24-150), purified (natural protein)
chain: MEHVPAELTRVSEGYTRFYRSPTASVILSGLVKVKWDNEQMTMPLFKWIGGEQAEELHFCVHIAHSSGPKLNRARSLGTVNSNMDQHWAQAQRNSGATRRTIEGFHLFENDIPNFPDYIKIKLVPKT
In data set [3], B2 had a turnover rate (Kcat) of LuCKX1.1 towards 2iP in the DCPIP kinetic assay, with 1.6 uM AvrL567-A against without it of 50% and a turnover rate (Kcat) of LuCKX1.1 towards tZ in the DCPIP kinetic assay, with 1.6 uM AvrL567-A against without it of 130%.

The Km is the concentration of substrate that gives half-maximal velocity. The term kcat denotes the maximal rate divided by the concentration of active sites.

These data come from article PMC6637871, “Structural and functional insights into the modulation of the activity of a flax cytokinin oxidase by flax rust effector AvrL567‐A” (Molecular Plant Pathology, 2018).
